Assay results published in publication PMC12136220.

Target: human recombinant Hsp60 (human), P10809
Assay: cryo-EM structure; purified LAP mixed with Hsp60 at 2:1, incubated 4 h at 4°C; Titan Krios 300 kV with K3 detector, cryoSPARC; LAP-Hsp60 map refined in C1, Hsp60 alone in C7, LAP dimer in C2
Conditions: remark: other sources report otherwise

B1: human recombinant Hsp60, P10809 27-573 (natural protein)
chain: AKDVKFGADARALMLQGVDLLADAVAVTMGPKGRTVIIEQSWGSPKVTKDGVTVAKSIDLKDKYKNIGAKLVQDVANNTNEEAGDGTTTATVLARSIAKEGFEKISKGANPVEIRRGVMLAVDAVIAELKKQSKPVTTPEEIAQVATISANGDKEIGNIISDAMKKVGRKGVITVKDGKTLNDELEIIEGMKFDRGYISPYFINTSKGQKCEFQDAYVLLSEKKISSIQSIVPALEIANAHRKPLVIIAEDVDGEALSTLVLNRLKVGLQVVAVKAPGFGDNRKNQLKDMAIATGGAVFGEEGLTLNLEDVQPHDLGKVGEVIVTKDDAMLLKGKGDKAQIEKRIQEIIEQLDVTTSEYEKEKLNERLAKLSDGVAVLKVGGTSDVEVNEKKDRVTDALNATRAAVEEGIVLGGGCALLRCIPALDSLTPANEDQKIGIEIIKRTLKIPAMTIAKNAGVEGSLIVEKIMQSSSEVGYDAMAGDFVNMVEKGIIDPTKVVRTALLDAAGVASLLTTAEVVVTEIPKEEKDPGMGAMGGMGGGMGGGMF
- stoichiometry N: 7
